Experimental data as given in patent US20170002055A1, “Novel peptides and combination of peptides for use in immunotherapy against ovarian cancer and other cancers” (immatics biotechnologies GmbH, priority 2015, published 2017).

The substances below were run against HLA-A*02:01 (Homo sapiens, UniProt P04439, D140Y/D185E/D98H/E176V/E277Q/G131W/G231S/I119V/I121R/I166T/I218V/L300P/L318F/N151K/N90K/P208A/P217A/Q86G/Q94H/R138H/R169H/T345S) (assay: MHC binding assay (UV-ligand exchange, β2m ELISA, peptide exchange yield)). Conditions: MHC class I binding score; binding to HLA-A*02:01 ranged by peptide exchange yield (UV-ligand exchange, β2m ELISA).
Excerpt: Candidate peptides for T cell based therapies according to the present invention were further tested for their MHC binding capacity (affinity). The individual peptide-MHC complexes were produced by UV-ligand exchange, where a UV-sensitive peptide is cleaved upon UV-irradiation, and exchanged with the peptide of interest as analyzed. Only peptide candidates that can effectively bind and stabilize the peptide-receptive MHC molecules prevent dissociation of the MHC complexes. To determine the yield of the exchange reaction, an ELISA was performed based on the detection of the light chain (β2m) of stabilized MHC complexes. The assay was performed as generally described in Rodenko et al. (Rodenko et al., 2006).
96 well MAXISorp plates (NUNC) were coated over night with 2 ug/ml streptavidin in PBS at room temperature, washed 4× and blocked for 1h at 37° C. in 2% BSA containing blocking buffer. […] Peptide-MHC monomers of the UV-exchange reaction were diluted 100 fold in blocking buffer. Samples were incubated for 1h at 37° C., washed four times, incubated with 2 ug/ml HRP conjugated anti-β2m for 1h at 37° C., washed again and detected with TMB solution that is stopped with […]. Absorption was measured at 450 nm. Candidate peptides that show a high exchange yield (preferably higher than 50%, most preferred higher than 75%) are generally preferred for a generation and production of antibodies or fragments thereof, and/or T cell receptors or fragments thereof, as they show sufficient avidity to the MHC molecules and prevent dissociation of the MHC complexes.

Peptide exchange | Substance
“+++” (≧50 = +++) | 29 (KMLGIPISNILMV; listed as Homo sapiens) [compound 29]
“+++” (≧50 = +++) | 183 (FGLDLVTEL; listed as Homo sapiens) [compound 183]
“++” (≧20% = ++) | 453 (KLLEATSAV; listed as Homo sapiens) [compound 453]
“++” (≧20% = ++) | 172 (VLYSYTIITV; listed as Homo sapiens) [compound 172]
“+++” (≧50 = +++) | 182 (MLLEAPGIFL; listed as Homo sapiens) [compound 182]
“++” (≧20% = ++) | 405 (ALYDVFLEV; listed as Homo sapiens) [compound 405]
“+++” (≧50 = +++) | 302 (ALLQEGEVYSA; listed as Homo sapiens) [compound 302]
“++” (≧20% = ++) | 372 (TMLLNIPLV; listed as Homo sapiens) [compound 372]
“+++” (≧50 = +++) | 622 (RLLGEEVVRVLQA; listed as Homo sapiens) [compound 622]
“+++” (≧50 = +++) | 83 (ILAPTVMMI; listed as Homo sapiens) [compound 83]
“++” (≧20% = ++) | 31 (YLAPELFVNV; listed as Homo sapiens) [compound 31]
“+++” (≧50 = +++) | 272 (ALGNTVPAV; listed as Homo sapiens) [compound 272]
“++++” (≧75% = ++++) | 305 (SIANFSEFYV; listed as Homo sapiens) [compound 305]
“+++” (≧50 = +++) | 365 (YVIDQGETDVYV; listed as Homo sapiens) [compound 365]
“++++” (≧75% = ++++) | 53 (KMIETDILQKV; listed as Homo sapiens) [compound 53]
“+++” (≧50 = +++) | 486 (AVMESIQGV; listed as Homo sapiens) [compound 486]
“+++” (≧50 = +++) | 589 (KLYPQLPAEI; listed as Homo sapiens) [compound 589]
“++” (≧20% = ++) | 114 (SLVGEPILQNV; listed as Homo sapiens) [compound 114]
“+++” (≧50 = +++) | 306 (ALVNVQIPL; listed as Homo sapiens) [compound 306]
“+++” (≧50 = +++) | 111 (YVWGFYPAEV; listed as Homo sapiens) [compound 111]
“++” (≧20% = ++) | 146 (SLATAGDGLIEL; listed as Homo sapiens) [compound 146]
“+++” (≧50 = +++) | 448 (NLLETKLQL; listed as Homo sapiens) [compound 448]
“++” (≧20% = ++) | 455 (SLLKEPQKVQL; listed as Homo sapiens) [compound 455]
“+++” (≧50 = +++) | 430 (HLYSSIEHLTT; listed as Homo sapiens) [compound 430]

Peptide exchange | Substance
“+++” (≧50 = +++) | 144 (YIMEPSIFNTL; listed as Homo sapiens) [compound 144]
“+++” (≧50 = +++) | 519 (GLLHLTLLL; listed as Homo sapiens) [compound 519]
“+++” (≧50 = +++) | 605 (KLYEAVPQL; listed as Homo sapiens) [compound 605]
“+++” (≧50 = +++) | 584 (ALAEVAAMENV; listed as Homo sapiens) [compound 584]
“++++” (≧75% = ++++) | 349 (SLTEYLQNV; listed as Homo sapiens) [compound 349]
“+++” (≧50 = +++) | 123 (NLWDLTDASVV; listed as Homo sapiens) [compound 123]
“++” (≧20% = ++) | 148 (ALNPEIVSV; listed as Homo sapiens) [compound 148]
“++” (≧20% = ++) | 231 (FLSPQQPPLLL; listed as Homo sapiens) [compound 231]
“++” (≧20% = ++) | 565 (ALQETPTSV; listed as Homo sapiens) [compound 565]
“+++” (≧50 = +++) | 598 (FLFPHSVLV; listed as Homo sapiens) [compound 598]
“++” (≧20% = ++) | 392 (ALLHPQGFEV; listed as Homo sapiens) [compound 392]
“+++” (≧50 = +++) | 282 (LLADVVPTT; listed as Homo sapiens) [compound 282]
“++++” (≧75% = ++++) | 137 (TLVLTLPTV; listed as Homo sapiens) [compound 137]
“++” (≧20% = ++) | 127 (KIGDEPPKV; listed as Homo sapiens) [compound 127]
“+++” (≧50 = +++) | 284 (ILLSQTTGV; listed as Homo sapiens) [compound 284]
“+++” (≧50 = +++) | 521 (MLLTKLPTI; listed as Homo sapiens) [compound 521]
“+++” (≧50 = +++) | 551 (KLYESLLPFA; listed as Homo sapiens) [compound 551]
“+++” (≧50 = +++) | 472 (KLLEVSDDPQV; listed as Homo sapiens) [compound 472]
“+++” (≧50 = +++) | 397 (YLFGERLLEC; listed as Homo sapiens) [compound 397]
“+++” (≧50 = +++) | 557 (KLYDDMIRL; listed as Homo sapiens) [compound 557]
“+++” (≧50 = +++) | 537 (TLAPGEVLRSV; listed as Homo sapiens) [compound 537]
“+++” (≧50 = +++) | 225 (SLLKVLPAL; listed as Homo sapiens) [compound 225]
“+++” (≧50 = +++) | 328 (ALNDQVFEI; listed as Homo sapiens) [compound 328]
“+++” (≧50 = +++) | 236 (GLLEAKVSL; listed as Homo sapiens) [compound 236]

Peptide exchange | Substance
“++” (≧20% = ++) | 375 (SLTETIEGV; listed as Homo sapiens) [compound 375]
“+++” (≧50 = +++) | 147 (SLLEAVSFL; listed as Homo sapiens) [compound 147]
“+++” (≧50 = +++) | 468 (YLRSVGDGETV; listed as Homo sapiens) [compound 468]
“+++” (≧50 = +++) | 542 (RVWDISTVSSV; listed as Homo sapiens) [compound 542]
“++” (≧20% = ++) | 522 (TLWYRSPEV; listed as Homo sapiens) [compound 522]
“++” (≧20% = ++) | 434 (KVSNSGITRV; listed as Homo sapiens) [compound 434]
“++” (≧20% = ++) | 251 (ALYTGFSILV; listed as Homo sapiens) [compound 251]
“+++” (≧50 = +++) | 396 (ALLPDLPAL; listed as Homo sapiens) [compound 396]
“+++” (≧50 = +++) | 601 (SAFPFPVTV; listed as Homo sapiens) [compound 601]
“+++” (≧50 = +++) | 569 (KLVDRTWTL; listed as Homo sapiens) [compound 569]
“++” (≧20% = ++) | 382 (ALQNYIKEA; listed as Homo sapiens) [compound 382]
“++” (≧20% = ++) | 220 (LLQKFVPEI; listed as Homo sapiens) [compound 220]
“++” (≧20% = ++) | 615 (VLPPDTDPA; listed as Homo sapiens) [compound 615]
“++++” (≧75% = ++++) | 68 (SLMELPRGLFL; listed as Homo sapiens) [compound 68]
“+++” (≧50 = +++) | 567 (SLLPLDDIVRV; listed as Homo sapiens) [compound 567]
“+++” (≧50 = +++) | 78 (SLFSSLEPQIQPV; listed as Homo sapiens) [compound 78]
“++” (≧20% = ++) | 15 (VLLTFKIFL; listed as Homo sapiens) [compound 15]
“+++” (≧50 = +++) | 378 (ALGYFVPYV; listed as Homo sapiens) [compound 378]
“+++” (≧50 = +++) | 23 (VLLDDIFAQL; listed as Homo sapiens) [compound 23]
“+++” (≧50 = +++) | 485 (NVPDSFNEV; listed as Homo sapiens) [compound 485]
“+++” (≧50 = +++) | 46 (ILTEENIHL; listed as Homo sapiens) [compound 46]
“+++” (≧50 = +++) | 517 (LLMPIPEGLTL; listed as Homo sapiens) [compound 517]
“++” (≧20% = ++) | 400 (SLLTEQDLWTV; listed as Homo sapiens) [compound 400]
“+++” (≧50 = +++) | 96 (YIFTDNPAAV; listed as Homo sapiens) [compound 96]
